Assay results from publication PMC2956967, “Cytochrome P450 102A2 Catalyzes Efficient Oxidation of Sodium Dodecyl Sulphate: A Molecular Tool for Remediation” (Enzyme Research, 2010).

T1: CYP102A2 (Bacillus subtilis, UniProt O08394)
T1 construct: gene cypD; full-length heme-diflavin reductase fusion, about 119 kDa per active site; PCR from genomic DNA, pCR T7/CT-TOPO, E. coli BL21(DE3); untagged enzyme and C-terminal 6His version both made, said kinetically alike
T1 sequence (O08394 1-1061): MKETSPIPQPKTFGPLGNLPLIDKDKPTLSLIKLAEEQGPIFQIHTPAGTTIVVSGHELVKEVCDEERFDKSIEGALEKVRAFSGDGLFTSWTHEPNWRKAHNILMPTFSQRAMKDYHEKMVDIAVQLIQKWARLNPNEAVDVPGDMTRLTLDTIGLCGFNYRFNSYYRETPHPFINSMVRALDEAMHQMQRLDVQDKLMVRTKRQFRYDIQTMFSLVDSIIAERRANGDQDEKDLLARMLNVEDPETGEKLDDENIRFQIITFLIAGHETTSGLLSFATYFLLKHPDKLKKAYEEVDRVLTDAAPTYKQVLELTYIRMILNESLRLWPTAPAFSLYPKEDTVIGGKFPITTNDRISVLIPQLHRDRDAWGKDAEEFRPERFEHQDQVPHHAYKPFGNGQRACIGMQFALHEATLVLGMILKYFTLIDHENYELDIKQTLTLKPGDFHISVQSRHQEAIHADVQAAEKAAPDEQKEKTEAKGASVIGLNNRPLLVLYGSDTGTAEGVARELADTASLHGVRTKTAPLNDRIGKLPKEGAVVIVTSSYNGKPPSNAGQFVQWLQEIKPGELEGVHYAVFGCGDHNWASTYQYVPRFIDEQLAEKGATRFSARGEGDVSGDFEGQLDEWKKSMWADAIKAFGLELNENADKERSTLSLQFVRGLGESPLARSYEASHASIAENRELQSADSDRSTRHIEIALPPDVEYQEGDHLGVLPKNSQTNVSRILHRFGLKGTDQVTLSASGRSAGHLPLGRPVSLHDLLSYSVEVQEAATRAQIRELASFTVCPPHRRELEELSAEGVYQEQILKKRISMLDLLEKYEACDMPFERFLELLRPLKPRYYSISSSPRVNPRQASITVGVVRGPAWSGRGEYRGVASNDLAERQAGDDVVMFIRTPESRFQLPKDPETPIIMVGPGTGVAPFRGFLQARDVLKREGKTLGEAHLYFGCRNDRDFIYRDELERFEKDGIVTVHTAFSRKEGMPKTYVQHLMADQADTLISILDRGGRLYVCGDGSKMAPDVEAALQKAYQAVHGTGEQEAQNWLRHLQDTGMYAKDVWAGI


Legend:
CYP102A2 = biological target: T1, CYP102A2; experiment: product inhibition, NADPH oxidation at […] nm; assay type: biochemical
purified protein [1] = substrate: NC(=O)C1=CN([C@@H]2O[C@H](COP(=O)(O)OP(=O)(O)OC[C@H]3O[C@@H](n4cnc5c(N)ncnc54)[C@H](OP(=O)(O)O)[C@@H]3O)[C@@H](O)[C@H]2O)C=CC1; experiment: purified protein; assay type: biochemical, Bacillus subtilis; details: 1.735 mM SDS co-substrate, 0.1 M potassium phosphate pH 7.2, 37 °C, NADPH 6.6-100 μM
purified protein [2] = substrate: CCCCCCCCCCCC(=O)O; experiment: purified protein; assay type: biochemical, Bacillus subtilis; details: NADPH co-substrate, 0.1 M potassium phosphate pH 7.2, 37 °C, sigmoidal, nH 8.7
purified protein [3] = substrate: CCCCCCCCCCCCOS(=O)(=O)O; experiment: purified protein; assay type: biochemical, Bacillus subtilis; details: 0.1 mM NADPH, 0.1 M potassium phosphate pH 7.2, 37 °C, SDS 0.34-1.73 mM, sigmoidal, nH 5.7

Ki (CYP102A2) [µM] | Molecule | Km (purified protein [1]) [µM] | kcat (purified protein [1]) [s⁻¹] | kcat/Km (purified protein [1]) [M⁻¹ s⁻¹] | K0.5 (purified protein [2]) [mM] | Vmax (purified protein [2]) [µmol/min] | K0.5 (purified protein [3]) [mM] | Vmax (purified protein [3]) [µmol/min]
100 | NC(=O)c1ccc[n+]([C@@H]2O[C@H](COP(=O)(O)OP(=O)(O)OC[C@H]3O[C@@H](n4cnc5c(N)ncnc54)[C@H](OP(=O)(O)O)[C@@H]3O)[C@@H](O)[C@H]2O)c1 [NADP^+] | – | – | – | – | – | – | –
– | CYP102A2 (Bacillus subtilis subsp. subtilis str. 168) (protein, full-length heme-diflavin reductase fusion, about 119 kDa per active site; PCR from genomic DNA, pCR T7/CT-TOPO, E. coli BL21(DE3); untagged enzyme and C-terminal 6His version both made, said kinetically alike) MKETSPIPQPKTFGPLGNLPLIDKDKPTLSLIKLAEEQGPIFQIHTPAGTTIVVSGHELVKEVCDEERFDKSIEGALEKVRAFSGDGLFTSWTHEPNWRKAHNILMPTFSQRAMKDYHEKMVDIAVQLIQKWARLNPNEAVDVPGDMTRLTLDTIGLCGFNYRFNSYYRETPHPFINSMVRALDEAMHQMQRLDVQDKLMVRTKRQFRYDIQTMFSLVDSIIAERRANGDQDEKDLLARMLNVEDPETGEKLDDENIRFQIITFLIAGHETTSGLLSFATYFLLKHPDKLKKAYEEVDRVLTDAAPTYKQVLELTYIRMILNESLRLWPTAPAFSLYPKEDTVIGGKFPITTNDRISVLIPQLHRDRDAWGKDAEEFRPERFEHQDQVPHHAYKPFGNGQRACIGMQFALHEATLVLGMILKYFTLIDHENYELDIKQTLTLKPGDFHISVQSRHQEAIHADVQAAEKAAPDEQKEKTEAKGASVIGLNNRPLLVLYGSDTGTAEGVARELADTASLHGVRTKTAPLNDRIGKLPKEGAVVIVTSSYNGKPPSNAGQFVQWLQEIKPGELEGVHYAVFGCGDHNWASTYQYVPRFIDEQLAEKGATRFSARGEGDVSGDFEGQLDEWKKSMWADAIKAFGLELNENADKERSTLSLQFVRGLGESPLARSYEASHASIAENRELQSADSDRSTRHIEIALPPDVEYQEGDHLGVLPKNSQTNVSRILHRFGLKGTDQVTLSASGRSAGHLPLGRPVSLHDLLSYSVEVQEAATRAQIRELASFTVCPPHRRELEELSAEGVYQEQILKKRISMLDLLEKYEACDMPFERFLELLRPLKPRYYSISSSPRVNPRQASITVGVVRGPAWSGRGEYRGVASNDLAERQAGDDVVMFIRTPESRFQLPKDPETPIIMVGPGTGVAPFRGFLQARDVLKREGKTLGEAHLYFGCRNDRDFIYRDELERFEKDGIVTVHTAFSRKEGMPKTYVQHLMADQADTLISILDRGGRLYVCGDGSKMAPDVEAALQKAYQAVHGTGEQEAQNWLRHLQDTGMYAKDVWAGI | 8.30 ± 0.62 | 2.05 ± 0.05 | 250000 | 0.47 ± 0.005 | 0.088 | 1.22 ± 0.04 | 0.18
